The values below come from paper PMC6557901, “Rif1 S-acylation mediates DNA double-strand break repair at the inner nuclear membrane”.

The target of the data set is T1, Rif1 NTD (100-1322) C466A/C473A (Saccharomyces cerevisiae, UniProt P29539 100-1322, C466A;C473A).
T1 sequence: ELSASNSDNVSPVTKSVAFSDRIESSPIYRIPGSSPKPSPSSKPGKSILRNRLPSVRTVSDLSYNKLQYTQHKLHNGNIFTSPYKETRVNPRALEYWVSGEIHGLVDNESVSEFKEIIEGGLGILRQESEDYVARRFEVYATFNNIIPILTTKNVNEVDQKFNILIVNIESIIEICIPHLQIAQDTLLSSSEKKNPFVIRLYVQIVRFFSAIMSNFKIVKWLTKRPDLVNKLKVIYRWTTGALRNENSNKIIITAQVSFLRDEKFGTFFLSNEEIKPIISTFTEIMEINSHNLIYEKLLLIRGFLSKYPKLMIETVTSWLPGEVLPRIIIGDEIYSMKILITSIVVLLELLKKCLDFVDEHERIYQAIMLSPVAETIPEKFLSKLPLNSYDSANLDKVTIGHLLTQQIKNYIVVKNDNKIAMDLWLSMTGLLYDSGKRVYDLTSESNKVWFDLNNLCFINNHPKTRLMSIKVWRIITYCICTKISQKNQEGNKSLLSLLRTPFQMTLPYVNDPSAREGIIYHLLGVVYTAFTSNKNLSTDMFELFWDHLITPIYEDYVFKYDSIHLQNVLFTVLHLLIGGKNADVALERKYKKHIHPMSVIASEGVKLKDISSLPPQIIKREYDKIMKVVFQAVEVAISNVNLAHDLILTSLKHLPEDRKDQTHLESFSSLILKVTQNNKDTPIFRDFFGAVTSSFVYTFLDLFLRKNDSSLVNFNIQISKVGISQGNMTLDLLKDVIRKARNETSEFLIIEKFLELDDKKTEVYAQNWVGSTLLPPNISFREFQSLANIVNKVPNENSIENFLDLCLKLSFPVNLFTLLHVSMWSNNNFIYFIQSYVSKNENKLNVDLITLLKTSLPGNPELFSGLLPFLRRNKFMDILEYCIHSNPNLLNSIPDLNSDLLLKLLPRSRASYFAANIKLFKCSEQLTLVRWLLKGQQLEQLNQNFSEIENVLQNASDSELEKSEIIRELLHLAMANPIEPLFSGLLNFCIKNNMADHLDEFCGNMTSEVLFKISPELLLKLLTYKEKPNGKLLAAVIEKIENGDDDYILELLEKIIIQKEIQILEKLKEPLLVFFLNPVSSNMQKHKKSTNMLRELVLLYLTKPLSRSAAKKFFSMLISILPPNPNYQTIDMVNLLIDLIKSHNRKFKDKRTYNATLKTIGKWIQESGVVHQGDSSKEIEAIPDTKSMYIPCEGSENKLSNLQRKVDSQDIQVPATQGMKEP
In words: EMSA; protein 10-160 nM, DNA 1 nM; apparent affinity similar to wild-type; 20 mM Tris-HCl pH 8.0, 100 mM NaCl, 2.5 mM MgCl2, 10 mM CaCl2, 0.1 mg/ml BSA, 1 mM TCEP, 30 min at 20 °C; 1.2% agarose gel, 0.5x TBE, 4 °C. The settings on record: protein: recombinant; tags: N-terminal Strep(II); label: 5'-32P on EMSA1; blunt.

B1: 30 bp dsDNA (EMSA1/EMSA2) (dsDNA)
DNA 1: TAGCAAGGCACTGGTAGAATTCGGCAGCGT
DNA 2: ACGCTGCCGAATTCTACCAGTGCCTTGCTA
Take B1: the binding result is listed as “binds”.
